From patent publication US20180009892A1 (EUREKA THERAPEUTICS, published 2018)

Experiments:
[1] = molecular target: T1, ROR1 extracellular domain Fc-fusion, dimer (human, UniProt Q01973 30-406); assay: SPR, immobilised ROR1 dimer, antibody injected, 1:1 model; apparent affinity
T1 construct: also called ROR1 dimer; hROR1 dimeric ECD-Fc fusion protein; not shown: Fc part
Protocol: (§1) The binding affinities of ROR1 extracellular domain dimer and monomer for anti-ROR1 antibodies were determined by surface plasmon resonance (SPR). ROR1 extracellular domain Fc-fusion, “dimer,” and ROR1 extracellular domain Fc fusion:Fc heterodimer, “monomer,” are the dimer and monomeric forms of ROR1 used for affinity analysis, respectively. Briefly, ROR1 dimer and monomer were directly immobilized to a CM4 chip using an amine coupling kit and 100 mM ethylenediamine in 100 mM Sodium Borate buffer, pH 8.0 as the blocking reagent. Approximately 100-150 RU of ROR1 dimer and monomer were immobilized on separate flow cells and an un-derivatized flow cell was used as a reference control. […] Dissociation was followed for 180 seconds. The association constant, dissociation constant, and affinity of each anti-ROR1 antibody was calculated using the Biacore T200 Evaluation Software 1:1 binding model.
(§2) Sensorgrams were normalized to 100 RU using the “binding stability point” at the end of the association phase but before the dissociation phase.

[2] = molecular target: T2, ROR1 extracellular domain Fc fusion:Fc heterodimer, monomer (human); assay: SPR, immobilised ROR1 monomer, antibody injected, 1:1 model
T2 construct: Heterodimer of one ROR1 ECD-Fc chain and one Fc chain; also called ROR1 monomer; hROR1 monomeric ECD-Fc fusion protein; not shown: Fc part; Fc alone
Protocol: as §1, §2

[3] = molecular target: T1, ROR1 extracellular domain Fc-fusion, …; assay: SPR, immobilised ROR1 dimer, antibody injected, 1:1 model
Protocol: as §1, §2

human ROR2-ECD = molecular target: T3, human ROR2-ECD (human, UniProt Q01974 34-403); assay: protein ELISA, phage
T3 construct: extracellular domain; also called hROR2

[4] = molecular target: T4, human ROR1 extracellular domain (ECD) protein (human, UniProt Q01973 30-406); assay: competitive phage ELISA: soluble ROR1 against ROR1-coated plate
T4 construct: also called hROR1-ECD; human ROR1-ECD
Protocol: Purified phage antibodies were first diluted serially in PBST buffer, and tested for binding to a ROR1-coated plate. The dilution that gave 50-80% saturating signal was used in the solution binding assay in which phage were first incubated with increasing concentration of ROR1 for one to two hours, and then transferred to a ROR1-coated plate for 10-15 minutes to capture the unbound phage.

T1 sequence (Q01973 30-406): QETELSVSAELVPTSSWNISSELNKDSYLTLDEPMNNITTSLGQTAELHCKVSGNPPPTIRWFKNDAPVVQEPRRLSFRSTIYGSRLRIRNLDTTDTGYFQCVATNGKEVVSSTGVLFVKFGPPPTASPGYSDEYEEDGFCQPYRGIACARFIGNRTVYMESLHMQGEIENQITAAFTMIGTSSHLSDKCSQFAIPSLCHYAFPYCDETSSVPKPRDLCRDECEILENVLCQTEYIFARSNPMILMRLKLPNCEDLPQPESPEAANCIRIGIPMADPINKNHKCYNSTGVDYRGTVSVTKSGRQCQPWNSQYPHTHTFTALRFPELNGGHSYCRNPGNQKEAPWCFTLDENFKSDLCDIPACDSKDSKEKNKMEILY
T4 sequence (Q01973 30-406 limits assumed): as the sequence (Q01973 30-406) above
T2 sequence (Q01973 30-406, one chain of several): as the sequence (Q01973 30-406) above
T3 sequence (Q01974 34-403): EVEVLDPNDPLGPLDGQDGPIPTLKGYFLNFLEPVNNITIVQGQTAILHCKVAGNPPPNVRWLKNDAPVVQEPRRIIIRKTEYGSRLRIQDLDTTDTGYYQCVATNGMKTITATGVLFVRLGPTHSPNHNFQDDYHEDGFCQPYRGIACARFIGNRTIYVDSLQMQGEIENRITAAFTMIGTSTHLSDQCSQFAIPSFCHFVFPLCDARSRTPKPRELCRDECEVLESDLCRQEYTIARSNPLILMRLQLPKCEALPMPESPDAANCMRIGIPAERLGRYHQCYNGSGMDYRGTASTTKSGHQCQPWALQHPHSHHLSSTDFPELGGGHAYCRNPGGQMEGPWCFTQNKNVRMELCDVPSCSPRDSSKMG

Row | Binder | Kd [1] [nM] | Kd [2] [nM] | koff [2] [s⁻¹] | kon [2] [M⁻¹ s⁻¹] | koff [3] [s⁻¹] | kon [3] [M⁻¹ s⁻¹] | binding result (human ROR2-ECD) | IC50 [4] [nM]
1 | Antibody 601-13 (antibody, V domains shown) VH: EVQLVQSGAEVKKPGSSVKVSCKASGGTFSTFAINWVRQAPGQGLEWMGGVIPVSGTEDYSQKFQGRLSLTADESTGTAYMELSSLRSDDTAVYYCARDRSGRDWDYFDYWGQGTLVTVSS VL: DIVMTQSPSSLSASVGDRVTITCQASQDISNYLNWYQQKPGKAPKLLIYDASNLETGVPSRFSGSGSGTDFIFTISSLQPEDIATYYCQQFDNLPYTFGQGTKVEIKR | 0.5 | 0.8 | 0.0014 | 1.8e+06 | 0.00087 | 1.6e+06 |  | 
2 | P601-128 (scFv, V domains shown) VH: EVQLVQSGAEVKKPGESLKISCKGSGYSFSRYWIGWVRQMPGKGLEWMGIIYPRDSDTRYSPSFQGQVTISADKSISTAYLQWSSLKASDTAMYYCATPVVTAGAFDIWGQGTMVTVSS VL: DIQMTQSPSSVSASVGDRVTITCRASQGISSWLAWYQQKPGKAPKLLIYAASSLQSGVPSRFSGSGSGTDFTLTISSLQPEDFATYYCQQANSFPLTFGGGTKVEIK |  |  |  |  |  |  | no binding | 263
3 | P601-70 (scFv, V domains shown) VH: EVQLVQSGAELKKPGSSVRVSCKTSGGSFKTHGISWVRQAPGQGLEWMGWINPNSGGALYVDNFQGRATMTRDTSINTAYMELRSLSSDDTAVYYCARGMADLIDVFDIWGQGTMVTVSS VL: TQPALTQPASVSGSPGQSITISCTGTSSDFGDYDYVSWYQQHPGKAPKLMIYDVSDRPSGVSNRFSGSKSGNTASLTISGLQAEDEADYFCSSFTTSSTLVFGGGTKLTVL |  |  |  |  |  |  | no binding | 74
4 | P601-4 (scFv, V domains shown) VH: EVQLVQSGPGLVKPSGTLSLTCAVSGGSISSSNWWSWVRQPPGKGLEWIGEIYHSGSTNYNPSLKSRVTISVDKSKNQFSLKLGSVTAADTATYYCARDLWLGEWDLWGQGTLVTVSS VL: QSVLTQPPSASGAPGQRVTISCSGGISNVGTNGVNWYQHLPGTAPKLLVDAMNQRPSGVPDRFSGSRSGTSGSLAITGLRSEDEADYYCATWDDSLSGVLFGGGTKLTVLG |  |  |  |  |  |  | no binding | 0.93
5 | P601-9 (scFv, V domains shown) VH: QLQLQESGPGVVKPSGTLSLTCTVSGGSISRSDGYWGWVRQPPGKGLEWIGSIYDTGTTYYSPSLKSRLIISVDTSKNQFSLTLNSVTAADTAVYYCASMGGLRSSSSDAFHTWGPGTMVTVSS VL: QSVLTQPPSVSVAPGETARITCGGTNIGSESVHWYQQRPGQAPVLVVYDDTDRPSGIPERFSGSNSGNTATLTISRVEAGDGADYYCQVWDSVSDRYVFGTGTKVTVL |  |  |  |  |  |  | no binding | 14.6
6 | P601-108 (scFv, V domains shown) VH: QLQLQESGPGLVKPSETLSLTCTVSGGSISSNSYYWGWIRQPPGKGLEWIGSIYYSGSTYYNPSLKSRVTISVDTSKNQFSLKLGSVTAADTAVYYCARHDGTDAFDIWGQGTTVTVSS VL: QSVVTQPPSVSAAPGQKVTISCSGSSSNIGKNYVSWYQQFPGTAPKLLIYDNNERPSGIPARFSGSKSGTSATLGITGLQTGDEADYYCATFDTSLWAAVFGGGTKLTVL |  |  |  |  |  |  | no binding | 0.76
7 | Antibody 601-130 (antibody, V domains shown) VH: EVQLVETGGGLVKPGGSLRLSCEASGFSLSSYSMNWVRQAPGKGLEWVSSISSSSTHIYYADSLKGRFTISRDNAKNSLFLQMDNLRAEDTAVYYCARATIGFDYWGQGTLVTVSS VL: QSVLTQPPSVSGAPGQRVTISCTGSSSNIGAGYDVHWYQQLPGTAPKLLIYGNSNRPSGVPDRFSGSKSGTSASLAITGLQAEDEADYYCQSYDSSLSGYVFGTGTKLTVL | 2.2 | 4.1 | 0.0018 | 450000 | 0.0012 | 520000 |  | 
8 | P601-50 (scFv, V domains shown) VH: QVQLQQSGAEVKKPGASVKVSCKASGYTFSRYYIHWVRRAPGQGLEWMGLINPGGGSTNYAQKFQGRVTMTRDTSTNTVYLELSSLRSDDTAVYYCARDYGTIDARRFDFWGQGTLVTVSS VL: QSALTQPPSASGTPGQRVTISCPGSSSNIGSNYVYWYQQLPGTAPKLLIYRNNQRPSGVPDRFSGSKSGTSATLGITGLQTGDEADYYCGTWDSSLSAYVFGTGTKVTVL |  |  |  |  |  |  | no binding | 24.1
9 | Antibody 601-100 (antibody, V domains shown) VH: EVQLVQSGGGVVQPGGPLRLSCAASGFTFSSYSMNWVRQAPGKGLEWVSSISSSSSYIYYADSVKGRFTISRDNAKNSLYLQMNSLRAEDTAVYYCARGLGGWTHDAFDIWGQGTMVTVSS VL: QSALTQPASVSGSPGQSITISCTGTSRDVGGYDYVSWYQQYPGNAPKLMIYDVSRRPSGVSHRFSASKSGNTASLTISGLQTEDEADYYCSSYTSSSTRVFGGGTKVTVL | 3.9 | 8.2 | 0.0028 | 350000 | 0.0017 | 440000 |  | 
10 | Antibody 601-28 (antibody, V domains shown) VH: EVQLVQSGGDLVQPGGSLRLSCAASGFTFSSYSMNWVRQAPGKGLEWVSSISSSSSYIYYADSVKGRFTISRDNAKNSLYLQMNSLRAEDTAVYYCARGLGGWTHDAFDIWGQGTTVTVSS VL: QSALTQPASVSGSPGQSITISCTGTSSDVGGYNYVSWYQQHPGKAPKLMIFDVSNRPSGVSNRFSGSKSGNTASLTISGLQAEDEADYYCSSYTSSSTLFGGGTKLTVL | 28.5 | 36.4 | 0.012 | 320000 | 0.0097 | 340000 |  | 
11 | Antibody 601-119 (antibody, V domains shown) VH: QVQLVQSGGGLVKPGGSLRLSCAASGFTFGTYSMNWVRQAPGKGLEWVSSISSSSSYIYYADSVKGRFTISRDNAKNSLYLQMNSLRAEDTAVYYCARGLGGWTHDAFDIWGQGTTVTVSS VL: QSALTQPASVSASPGQSITISCTGTSSDVGGYNYVTWYQQHPGKAPKLMIYDVSKRPSGVLDRFSGSKSGNTASLTISGLQAEDEADYFCSSYTSSSTLVFGGGTKLTVLG | 178 | 407 | 0.095 | 230000 | 0.079 | 440000 |  | 
12 | P601-102 (scFv, V domains shown) VH: QMQLVQSGGDLVQPGGSLRLSCAASGFTFSSYSMNWVRQAPGKGLEWVSSISSSSSYIYYADSVKGRFTISRDNAKNSLYLQMNSLRAEDTAVYYCARGLGGWTHDAFDIWGQGTTVTVSS VL: QSALTQPASVSGSPGQSITISCTGTSSDVGGYNYVSWYQQHPGKAPKLMIYDVSKRPSGVSNRFSGSKSGNTASLTISGLQAEDEADYYCSSYTSSSTSVVFGGGTKLTVL |  |  |  |  |  |  | no binding | 10.2
13 | Antibody 601-103 (antibody, V domains shown) VH: EVQLVQSGGDLVQPGGSLRLSCAASGFTFSSYSMNWVRQAPGKGLEWVSSISSSSSYIYYADSVKGRFTISRDNAKNSLYLQMNSLRAEDTAVYYCARGLGGWTHDAFDIWGQGTTVTVSS VL: QSVLTQPASVSGSPGQSITISCTGTTSDVGGYNYVSWYQQHPGKAPKLMIYDVSKRPSGVSNRFSGSKSGNTASLTISGLQAEDEADYYCSSYTSSSTDVFGTGTKLTVL | 20.7 | 40.2 | 0.005 | 120000 | 0.0035 | 170000 |  | 
14 | P601-119 (scFv, V domains shown) VH: QVQLVQSGGGLVKPGGSLRLSCAASGFTFGTYSMNWVRQAPGKGLEWVSSISSSSSYIYYADSVKGRFTISRDNAKNSLYLQMNSLRAEDTAVYYCARGLGGWTHDAFDIWGQGTTVTVSS VL: QSALTQPASVSASPGQSITISCTGTSSDVGGYNYVTWYQQHPGKAPKLMIYDVSKRPSGVLDRFSGSKSGNTASLTISGLQAEDEADYFCSSYTSSSTLVFGGGTKLTVLG |  |  |  |  |  |  | no binding | 17.7
15 | Antibody 601-112 (antibody, V domains shown) VH: EVQLVQSGGDLVQPGGSLRLSCAASGFTFSSYSMNWVRQAPGKGLEWVSSISSSSSYIYYADSVKGRFTISRDNAKNSLYLQMNSLRAEDTAVYYCARGLGGWTHDAFDIWGQGTTVTVSS VL: QSALTQPASVSGSPGQSITISCTGTSSDVGGYNYVSWYQQHPGKAPKLMIYDVSKRPSGVSNRFSGSKSGNTASLTISGLQAEDEADYYCSSYTGRSTVFGGGTKLTVL | 1 | 4.6 | 0.0012 | 270000 | 0.00032 | 340000 |  | 
16 | P601-69 (scFv, V domains shown) VH: QVQLVQSGAEVKKPGESLKISCKGSGYSFTSYWIGWVRQMPGKGLEWMGIIYPGDSDTRYSPSFQGQVTISADKSISTAYLQWSSLKASDTAMYYCARLSSSSYDAFDIWGQGTMVTVSS VL: QSALTQPASVSGSPGQSITISCTGTSSDVGGYNYVSWYQQHPGKAPKLMIYDVSNRPSGVSNRFSGSKSGNTASLTISGLQAEDEADYYCSSYTSSSIPWVFGGGTKLTVL |  |  |  |  |  |  | no binding | 9.81
